From the supplement of paper PMC6757056
± gives the standard deviation of the averaged measurements.

B1: library; a variant is named by its letters at N, in order (parent)
chain: GCUGUCACCGAGAAACUGUGAAGUAUAUCUUAAACCUGGGCACUUAAAAGAUAUAUGGAGUUAGUAGUGCAACCUGCUCGGUCUGAUGAGUCCNNNNNNGGACGAAACAGC

What was measured:
[1] = variants of: B1; assay: normalized RNA/DNA level without ligand (relative to sTRSVctl = 100) (log10 (% of sTRSVctl)); HEK293T; ligand: cyclic di-GMP (c-di-GMP-II aptamer); higher = less ribozyme self-cleavage, higher mRNA level; conditions: reporter: mCherry (pCS4076), ligand present: no
Procedure, shortened: (§1)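 Total RNA, extracted with EDTA 72 h after HEK293T cells were transfected with 4 µg per 6-well well of reporter-linked ribozyme switch library plasmids, was reverse-transcribed, amplified, barcoded and sequenced. Ligand, if used, was added 1 h before transfection. RNA level was derived from RNA reads divided by DNA reads and normalized to a spiked-in non-cleaving sequence or to the top sequences. This was multiplied by 100 and log10-transformed, with the top set of 25 sequences and a ≥100 DNA read minimum.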

[2] = variants of: B1; assay: normalized RNA/DNA level with ligand (relative to sTRSVctl = 100) (log10 (% of sTRSVctl)); HEK293T; ligand: cyclic di-GMP (c-di-GMP-II aptamer); ligand concentration (+) RNA-Seq: 1 mM; higher = less ribozyme self-cleavage, higher mRNA level; conditions: reporter: mCherry (pCS4076), ligand present: yes
Procedure, shortened: as §1

Variant | normalized RNA/DNA level without ligand (log10) [1] | normalized RNA/DNA level with ligand (log10) [2]
UCAAAG | 1.602 ± 0.012 | 1.77 ± 0.12
UCAAAU | 1.5 ± 0.063 | 1.71 ± 0.092
UCAAAC | 1.63 ± 0.026 | 1.8 ± 0.079
UAUCAA | 1.7 ± 0.031 | 1.83 ± 0.11
UAUCAG | 1.72 ± 0.028 | 1.84 ± 0.13
UAUCAU | 1.656 ± 0.0018 | 1.81 ± 0.12
ACAACC | 1.67 ± 0.02 | 1.82 ± 0.1
ACAACA | 1.46 ± 0.076 | 1.68 ± 0.099
ACAACG | 1.46 ± 0.1 | 1.65 ± 0.12
CAUUCG | 1.83 ± 0.091 | 1.95 ± 0.14
CAUUCU | 1.55 ± 0.07 | 1.73 ± 0.12
CAUUCA | 1.38 ± 0.087 | 1.56 ± 0.12
CAUUCC | 1.781 ± 0.0028 | 1.87 ± 0.041
GAUGGU | 1.64 ± 0.057 | 1.8 ± 0.063
GAUGGC | 1.68 ± 0.051 | 1.8 ± 0.13
GAUGGG | 1.54 ± 0.081 | 1.67 ± 0.16
GCAAAA | 1.35 ± 0.18 | 1.59 ± 0.078
UAUUGG | 1.75 ± 0.061 | 1.87 ± 0.076
UAUUGC | 1.76 ± 0.025 | 1.87 ± 0.088
UAUUGA | 1.6713 ± 0.00062 | 1.83 ± 0.1
UAUUGU | 1.67 ± 0.034 | 1.81 ± 0.11
CAUGGG | 1.682 ± 0.0032 | 1.84 ± 0.094
CAUGGU | 1.648 ± 0.0024 | 1.77 ± 0.16

Variant | normalized RNA/DNA level without ligand (log10) [1] | normalized RNA/DNA level with ligand (log10) [2]
CAUGGC | 1.715 ± 0.005 | 1.84 ± 0.09
CAUUAG | 1.74 ± 0.021 | 1.84 ± 0.087
CAUUAC | 1.6236 ± 0.00067 | 1.79 ± 0.13
AAUCAA | 1.51 ± 0.1 | 1.73 ± 0.078
AAUCAC | 1.71 ± 0.027 | 1.83 ± 0.096
AAUCAU | 1.64 ± 0.02 | 1.78 ± 0.093
AAUCAG | 1.61 ± 0.057 | 1.76 ± 0.026
AAUCGU | 1.65 ± 0.038 | 1.81 ± 0.11
AAUCGG | 1.6 ± 0.048 | 1.76 ± 0.12
AAUCGA | 1.49 ± 0.07 | 1.69 ± 0.094
AAUCGC | 1.74 ± 0.018 | 1.89 ± 0.12
GCACAG | 1.58 ± 0.061 | 1.71 ± 0.14
UAUGCG | 1.78 ± 0.029 | 1.86 ± 0.1
UAUGCU | 1.72 ± 0.043 | 1.86 ± 0.11
UAUGCC | 1.81 ± 0.042 | 1.91 ± 0.15
UAUGCA | 1.77 ± 0.061 | 1.87 ± 0.16
CAUUUU | 1.535 ± 0.0069 | 1.76 ± 0.16
CAUUUG | 1.75 ± 0.062 | 1.91 ± 0.095
CAUUUC | 1.67 ± 0.022 | 1.82 ± 0.14
GAUCCC | 1.79 ± 0.027 | 1.89 ± 0.082
GAUCCA | 1.71 ± 0.032 | 1.85 ± 0.1
GAUCCG | 1.88 ± 0.068 | 1.95 ± 0.15
GAUCCU | 1.7 ± 0.025 | 1.84 ± 0.13

Variant | normalized RNA/DNA level without ligand (log10) [1] | normalized RNA/DNA level with ligand (log10) [2]
UAUUUG | 1.732 ± 0.0073 | 1.86 ± 0.1
UAUUUA | 1.707 ± 0.0067 | 1.84 ± 0.12
UAUUUU | 1.73 ± 0.062 | 1.84 ± 0.13
UAUUUC | 1.75 ± 0.0095 | 1.87 ± 0.1
GCAACG | 1.54 ± 0.046 | 1.78 ± 0.11
GCAACC | 1.647 ± 0.0045 | 1.79 ± 0.097
GCAACU | 1.582 ± 0.0092 | 1.77 ± 0.13
AAUGCG | 1.704 ± 0.0078 | 1.82 ± 0.15
AAUGCA | 1.666 ± 0.0048 | 1.78 ± 0.14
AAUGCC | 1.73 ± 0.034 | 1.83 ± 0.11
AAUGCU | 1.73 ± 0.036 | 1.85 ± 0.12
AAUUUA | 1.61 ± 0.031 | 1.81 ± 0.15
AAUUUU | 1.73 ± 0.033 | 1.85 ± 0.12
AAUUUG | 1.62 ± 0.071 | 1.75 ± 0.12
AAUUUC | 1.721 ± 0.0067 | 1.87 ± 0.08
CAUAUU | 1.45 ± 0.13 | 1.64 ± 0.067
CAUAUG | 1.718 ± 0.017 | 1.81 ± 0.053
CAUAUC | 1.63 ± 0.069 | 1.79 ± 0.047
UAUAGG | 1.68 ± 0.023 | 1.85 ± 0.11
UAUGGA | 1.53 ± 0.017 | 1.73 ± 0.098
UAUGGG | 1.57 ± 0.078 | 1.73 ± 0.1
UAUGGC | 1.708 ± 0.015 | 1.82 ± 0.12
AAUAUG | 1.61 ± 0.06 | 1.74 ± 0.11

Variant | normalized RNA/DNA level without ligand (log10) [1] | normalized RNA/DNA level with ligand (log10) [2]
AAUAUA | 1.53 ± 0.054 | 1.72 ± 0.13
AAUAUU | 1.667 ± 0.015 | 1.83 ± 0.083
AAUAUC | 1.67 ± 0.022 | 1.81 ± 0.079
CAUGCC | 1.79 ± 0.029 | 1.89 ± 0.15
CAUGCU | 1.72 ± 0.056 | 1.84 ± 0.097
CAUGCA | 1.52 ± 0.05 | 1.66 ± 0.067
CAUGCG | 1.81 ± 0.029 | 1.9 ± 0.14
AAUGAC | 1.63 ± 0.018 | 1.79 ± 0.081
GAUUAC | 1.722 ± 0.0096 | 1.83 ± 0.081
GAUUAU | 1.62 ± 0.022 | 1.77 ± 0.07
GAUUAG | 1.68 ± 0.046 | 1.8 ± 0.089
AAUUGA | 1.49 ± 0.096 | 1.72 ± 0.083
AAUUGU | 1.66 ± 0.061 | 1.83 ± 0.075
AAUUGC | 1.696 ± 0.016 | 1.83 ± 0.091
UCAAUC | 1.63 ± 0.01 | 1.8 ± 0.12
GCACGC | 1.66 ± 0.027 | 1.78 ± 0.2
CAUCGG | 1.78 ± 0.048 | 1.84 ± 0.12
CAUCGC | 1.783 ± 0.015 | 1.87 ± 0.043
CAUCGU | 1.74 ± 0.095 | 1.83 ± 0.098
GAUAUA | 1.53 ± 0.032 | 1.7 ± 0.1
GAUAUG | 1.52 ± 0.028 | 1.71 ± 0.096
GAUAUU | 1.61 ± 0.019 | 1.8 ± 0.13
GAUAUC | 1.6972 ± 0.0005 | 1.86 ± 0.12

Variant | normalized RNA/DNA level without ligand (log10) [1] | normalized RNA/DNA level with ligand (log10) [2]
UAUGAG | 1.653 ± 0.0081 | 1.82 ± 0.12
CAUCAU | 1.56 ± 0.064 | 1.72 ± 0.072
CAUCAC | 1.67 ± 0.027 | 1.8 ± 0.069
CAUCAG | 1.69 ± 0.044 | 1.76 ± 0.13
ACACGC | 1.554 ± 0.0051 | 1.76 ± 0.13
CAUUGC | 1.78 ± 0.056 | 1.85 ± 0.15
CAUUGG | 1.804 ± 0.0056 | 1.93 ± 0.15
CAUUGA | 1.602 ± 0.0057 | 1.76 ± 0.13
CAUUGU | 1.78 ± 0.023 | 1.88 ± 0.046
UAUCCU | 1.755 ± 0.013 | 1.87 ± 0.13
UAUCCA | 1.77 ± 0.062 | 1.86 ± 0.097
UAUCCG | 1.8 ± 0.022 | 1.87 ± 0.095
UAUCCC | 1.83 ± 0.0035 | 1.9 ± 0.055
GAUUUU | 1.656 ± 0.01 | 1.81 ± 0.14
GAUUUC | 1.79 ± 0.13 | 1.9 ± 0.12
GAUUUG | 1.6 ± 0.025 | 1.76 ± 0.11
AAUCUC | 1.74 ± 0.032 | 1.86 ± 0.075
AAUCUA | 1.55 ± 0.055 | 1.75 ± 0.071
AAUCUG | 1.62 ± 0.031 | 1.8 ± 0.061
AAUCUU | 1.74 ± 0.09 | 1.86 ± 0.1
GAUCGC | 1.74 ± 0.019 | 1.86 ± 0.051
GAUCGU | 1.65 ± 0.046 | 1.81 ± 0.087
GAUCGG | 1.747 ± 0.013 | 1.82 ± 0.034
